From US20250361295A1 (ANTENGENE BIOLOGICS, published 2025)
Residue numbers refer to the chain shown, from its start.

B1: ch43-D12-F3-G11 (antibody, V domains shown)
VH: EVQVVESGPGLVAPSQSLSITCTVSGFSLTSYGVSWVRQPPGKGLEWLGVIWADGSTNYHSALLSRLSISKDNSKSQVFLKLNSLQTDDTATYYCAKGHWDGFAYWGQGTLVAVSA
VL: DIVLTQSPAIMSTSPGEKVTLTCSASSSITSSYLYWYQQKPGSSPKLWIYSTSNLASGVPARFSGSGSGTSYYLTISSMEAEDAASYFCHQWSSYPPTFGGGTKLELK
B2: 43-D12-F3-G11 (antibody, V domains shown)
VH: B1 VH
VL: B1 VL
notes: mouse monoclonal hybridoma antibody
B3: 25-E7-A10-H6 (antibody, V domains shown)
VH: EVQLVESGGGLVQPGGSRKLSCAASGFTFSTFGMHWVRQAPEKGLEWVAYISSGSSTIYYADTVKGRFTISRDNPKNTLFLQMTSLRSEDTAMYYCARSTGTGAMDYWGQGTSVTVSS
VL: DIQMTQTTSSLSASLGDRVTISCRASQDISKYLNWYQQKPDGTVKLLIYYTSRLHSGVPSRFSGSGSGTDYSLTISNLEQEDIATYFCQQGNTLPWTFGGGTKLEIK
notes: as for B2
B4: 27-G5-E9-B8 (antibody, V domains shown)
VH: B3 VH with T31S
VL: B3 VL with R18S, I21F, K31N, Y49S, T93A
notes: as for B2
B5: 27-F11-E10-G10 (antibody, V domains shown)
VH: B3 VH with T31S, T69S, Y94F
VL: B3 VL with K31N, I106L
notes: as for B2
B6: 2-H1-D7-E5-D5 (antibody, V domains shown)
VH: B3 VH with Q3H, T31S, A40P, T57S, S99G
VL: B3 VL with A25T, K31N, R53K, E79D
notes: as for B2
B7: 26-H9-B9-B7 (antibody, V domains shown)
VH: B3 VH with L4R, T31S, T100D, T102K
VL: B3 VL with Q3V, T7S, K31N
notes: as for B2
B8: 27-D11-C2-A10 (antibody, V domains shown)
VH: B3 VH with T31V, M34V, S56N, Y59H, N74I, T100S
VL: B3 VL with T7S, T20S, K31N, T43A, E79D, I106L
notes: as for B2
B9: 10-H9-E3-G3 (antibody, V domains shown)
VH: B3 VH with L4R, T31S, T57A, I58M, T100D, T102K
VL: B3 VL with K31N, I48V
notes: as for B2
B10: 2-H8-C9-F7-E2 (antibody, V domains shown)
VH: EVQLQQSGAELVKPGASVKLSCKASGYTFTNYWMHWVKQRPGQGLEWIGEINPSNGRTNYNEKFKSKATLTVDKSSSTAYMQLSSLTSEDSAVYYCARGSLTTVVPFDYWGQGTTLTVSS
VL: DIQMTQTPSSLSASLGGKVTITCKASQDINNYIAWYQHKPGKGPRLLIHYTSTLQPGIPSRFSGSGSGRDYSFSISNLEPEDIATYFCLQYDILLTFGGGTKLEK
notes: as for B2
B11: ch8-B3-F6-H8 (antibody, V domains shown)
VH: EVKVIESGGGLVQPGGSLKLSCAASGFDFSRYWMSWVRQAPGKGLEWIGEINPDSSAINYTPSLKDKFIISRDNAKNTLYLQMSKVRSEDTALYYCATSMTMDYWGQGTSVTVSS
VL: DIVMTQSPSSMYASLGERVTITCKASQDIKSYLSWYQQKPWKSPKTLIYYATSLADGVPSRFSGSGSGQDYSLTISSLESDDTATYYCLQHGESPYTFGGGTKLEK
B12: 8-B3-F6-H8 (antibody, V domains shown)
VH: B11 VH
VL: B11 VL
notes: as for B2
B13: ch48-E11-H7-B5 (antibody, V domains shown)
VH: EVQLVESGGGLVKPGGSLKLSCAASGFTFSSYAMSWVRQTPEKRLEWVASITIGDDTYYPDSVKGRFTISRDHAKNILYLQVSSLRSEDTAMYSCARGVNSYGSSYRYFDVWGAGTTVTVSS
VL: DIVMTQSHKFMSTSVGDRVSITCKASQDVSTAVAWYQQKPGQSPKLLIYWASTRHTGVPDRFTGSGSGTDYTLTISSVQAEDLALYYCQQHYSIPFTFGAGTKLEK
B14: 48-E11-H7-B5 (antibody, V domains shown)
VH: B13 VH
VL: B13 VL
notes: as for B2

Columns and labels:
[1] = molecular target: T1, human LILRB4 (human, UniProt Q8NHJ6 22-448); experiment: cell-based or functional assay
[2] = molecular target: T1, human LILRB4; experiment: cell-based or functional assay; remark: listed apart in the source
[3] = molecular target: T1, human LILRB4; experiment: cell-based or functional assay; remark: listed apart in the source
[4] = molecular target: T1, human LILRB4; experiment: FACS, 293F-hLILRB4 cells
Experimental: (§1) The protocol for FACS analysis is described as follows: [0438] (a) Cells were harvested by centrifugation at 300 g for 3 mins. […] (b) The cells were washed for 2 times with FACS buffer by centrifuging at 300 g for 3 mins and the supernatant was discarded. [0440] (c) Cell were resuspended and seeded into assay plate (2×10⁵ cells/well) in 50 μl FACS buffer. […] Cells were incubated with antibodies at 4° C. for 1 hour. […] (d) Step (b) was repeated and the cells were resuspended with 100 μl diluted 2nd antibody, incubated at 4° C. for 1 hour in the dark. [0442] (e) Step (b) was repeated and the cells were resuspended with 100 μl FACS buffer. The cells were kept in dark for FACS analysis.

[5] = molecular target: T2, human LILRA5 (human, UniProt A6NI73 42-299); experiment: FACS, 293F-hLILRA5 cells
T2 construct: whole, on cells; also called hLILRA5

[6] = molecular target: T3, human LILRB1 (human, UniProt Q8NHL6 24-650); experiment: FACS, 293F-hLILRB1 cells
T3 construct: whole, on cells; also called hLILRB1

[7] = molecular target: T4, human LILRB5 (human, UniProt O75023 24-590); experiment: FACS, 293F-hLILRB5 cells
T4 construct: whole, on cells; also called hLILRB5

[8] = molecular target: T5, human LILRA3 (human, UniProt Q8N6C8 24-439); experiment: FACS, 293F-hLILRA3 cells
T5 construct: whole, on cells; also called hLILRA3

[9] = molecular target: T6, human LILRA2 (human, UniProt Q8N149 24-483); experiment: FACS, 293F-hLILRA2 cells
T6 construct: whole, on cells; also called hLILRA2

[10] = molecular target: T1, human LILRB4; experiment: FACS, 293F-hLILRB4 cells; remark: listed apart in the source
Experimental: The subcloning plates were screened by protein or cell-based ELISA, and the subclones with good binding ability were expanded to 24-wells for confirmation tests. The specificity and cross-reactivity of these subclones were confirmed with FACS analysis. […] Fluorescent dye-conjugated secondary antibody was used to detect the binding of the primary antibody with the cells. Median fluorescence intensity (MFI) was measured by FACS analysis. […]

[11] = molecular target: T7, human LILRA1 (human, UniProt O75019 17-489); experiment: FACS, 293F-hLILRA1 cells
T7 construct: whole, on cells; also called hLILRA1

[12] = molecular target: T8, human LILRB2 (human, UniProt Q8N423 22-597); experiment: FACS, 293F-hLILRB2 cells
T8 construct: whole, on cells; also called hLILRB2

[13] = molecular target: T9, human LILRA4 (human, UniProt P59901 24-499); experiment: FACS, 293F-hLILRA4 cells
T9 construct: whole, on cells; also called hLILRA4

[14] = molecular target: T10, human LILRB3 (human, UniProt O75022 24-631); experiment: FACS, 293F-hLILRB3 cells
T10 construct: whole, on cells; also called hLILRB3

[15] = molecular target: T10, human LILRB3; experiment: FACS, 293F-hLILRB3 cells; remark: listed apart in the source
Experimental: as §1

T2 sequence (A6NI73 42-299): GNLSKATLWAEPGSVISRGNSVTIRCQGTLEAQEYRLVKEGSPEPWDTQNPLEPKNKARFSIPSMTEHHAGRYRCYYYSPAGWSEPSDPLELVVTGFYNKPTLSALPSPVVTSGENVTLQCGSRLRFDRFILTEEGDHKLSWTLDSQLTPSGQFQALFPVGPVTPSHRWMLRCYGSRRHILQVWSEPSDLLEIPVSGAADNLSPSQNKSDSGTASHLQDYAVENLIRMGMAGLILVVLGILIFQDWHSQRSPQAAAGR
T5 sequence (Q8N6C8 24-439): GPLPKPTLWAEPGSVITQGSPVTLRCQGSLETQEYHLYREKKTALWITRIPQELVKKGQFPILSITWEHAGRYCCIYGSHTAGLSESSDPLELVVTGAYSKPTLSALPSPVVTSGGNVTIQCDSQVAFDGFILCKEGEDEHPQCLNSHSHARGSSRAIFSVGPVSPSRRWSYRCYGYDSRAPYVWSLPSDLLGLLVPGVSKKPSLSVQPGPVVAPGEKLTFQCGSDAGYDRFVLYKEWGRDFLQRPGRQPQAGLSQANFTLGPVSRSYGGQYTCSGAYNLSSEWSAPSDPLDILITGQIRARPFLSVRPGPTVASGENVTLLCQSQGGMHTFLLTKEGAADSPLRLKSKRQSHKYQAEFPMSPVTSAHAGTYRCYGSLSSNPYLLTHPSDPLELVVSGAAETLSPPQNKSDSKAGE
T8 sequence (Q8N423 22-597): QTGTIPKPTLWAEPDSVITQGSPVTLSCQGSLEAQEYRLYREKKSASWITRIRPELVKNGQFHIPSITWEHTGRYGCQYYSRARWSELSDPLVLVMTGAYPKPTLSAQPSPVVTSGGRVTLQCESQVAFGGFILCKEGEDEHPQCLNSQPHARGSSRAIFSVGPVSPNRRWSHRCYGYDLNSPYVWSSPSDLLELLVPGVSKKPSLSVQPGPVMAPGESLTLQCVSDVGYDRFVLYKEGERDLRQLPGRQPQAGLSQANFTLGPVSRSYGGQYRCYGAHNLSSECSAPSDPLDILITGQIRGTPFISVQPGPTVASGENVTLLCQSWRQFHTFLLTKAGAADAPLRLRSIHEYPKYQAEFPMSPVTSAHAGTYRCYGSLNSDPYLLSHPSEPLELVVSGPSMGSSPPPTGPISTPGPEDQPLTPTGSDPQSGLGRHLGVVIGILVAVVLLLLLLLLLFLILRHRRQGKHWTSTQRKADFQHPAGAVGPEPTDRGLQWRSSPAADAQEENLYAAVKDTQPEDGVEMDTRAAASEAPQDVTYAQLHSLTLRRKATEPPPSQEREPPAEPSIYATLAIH
T4 sequence (O75023 24-590): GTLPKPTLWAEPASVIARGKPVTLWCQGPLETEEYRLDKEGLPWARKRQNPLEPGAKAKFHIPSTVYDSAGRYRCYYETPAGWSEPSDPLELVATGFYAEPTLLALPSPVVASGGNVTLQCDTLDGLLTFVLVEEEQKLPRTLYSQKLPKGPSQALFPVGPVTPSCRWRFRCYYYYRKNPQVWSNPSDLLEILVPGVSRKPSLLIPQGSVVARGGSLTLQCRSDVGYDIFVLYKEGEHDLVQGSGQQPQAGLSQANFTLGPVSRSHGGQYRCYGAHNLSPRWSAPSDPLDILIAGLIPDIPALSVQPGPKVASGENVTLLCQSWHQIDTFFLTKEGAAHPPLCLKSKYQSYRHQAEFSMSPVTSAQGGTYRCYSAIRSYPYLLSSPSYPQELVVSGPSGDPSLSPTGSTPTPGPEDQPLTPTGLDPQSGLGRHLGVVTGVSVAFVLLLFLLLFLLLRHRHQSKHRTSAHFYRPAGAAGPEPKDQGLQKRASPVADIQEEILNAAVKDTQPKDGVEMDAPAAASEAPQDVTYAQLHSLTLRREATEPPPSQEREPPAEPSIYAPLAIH
T3 sequence (Q8NHL6 24-650): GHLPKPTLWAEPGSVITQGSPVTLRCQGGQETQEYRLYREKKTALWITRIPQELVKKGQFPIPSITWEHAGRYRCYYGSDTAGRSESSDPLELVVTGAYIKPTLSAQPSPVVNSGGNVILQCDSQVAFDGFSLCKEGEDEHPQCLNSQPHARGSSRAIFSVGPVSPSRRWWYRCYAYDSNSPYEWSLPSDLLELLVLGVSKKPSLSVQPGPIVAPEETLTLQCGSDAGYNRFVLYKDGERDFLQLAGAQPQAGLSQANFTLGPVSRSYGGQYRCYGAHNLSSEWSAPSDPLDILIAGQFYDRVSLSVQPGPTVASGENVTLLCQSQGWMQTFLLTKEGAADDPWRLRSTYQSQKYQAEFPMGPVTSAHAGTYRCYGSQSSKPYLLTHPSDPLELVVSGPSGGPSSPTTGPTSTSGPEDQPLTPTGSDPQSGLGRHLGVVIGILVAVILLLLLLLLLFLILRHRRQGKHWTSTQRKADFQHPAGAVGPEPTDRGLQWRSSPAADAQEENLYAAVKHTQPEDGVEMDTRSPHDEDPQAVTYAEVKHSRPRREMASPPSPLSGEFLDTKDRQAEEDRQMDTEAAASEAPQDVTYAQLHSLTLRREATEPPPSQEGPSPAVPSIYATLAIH
T6 sequence (Q8N149 24-483): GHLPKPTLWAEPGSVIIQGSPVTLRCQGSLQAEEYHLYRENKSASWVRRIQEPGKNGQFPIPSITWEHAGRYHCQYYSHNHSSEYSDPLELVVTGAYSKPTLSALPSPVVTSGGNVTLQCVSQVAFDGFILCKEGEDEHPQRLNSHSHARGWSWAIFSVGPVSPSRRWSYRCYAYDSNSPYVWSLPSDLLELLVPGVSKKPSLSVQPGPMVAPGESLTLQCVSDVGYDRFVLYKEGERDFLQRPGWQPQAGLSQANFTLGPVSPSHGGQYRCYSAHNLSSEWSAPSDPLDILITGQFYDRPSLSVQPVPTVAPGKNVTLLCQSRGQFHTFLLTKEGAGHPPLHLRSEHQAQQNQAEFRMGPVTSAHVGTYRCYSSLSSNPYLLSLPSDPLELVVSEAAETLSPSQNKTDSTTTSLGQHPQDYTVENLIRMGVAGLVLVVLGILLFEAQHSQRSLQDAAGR
T10 sequence (O75022 24-631): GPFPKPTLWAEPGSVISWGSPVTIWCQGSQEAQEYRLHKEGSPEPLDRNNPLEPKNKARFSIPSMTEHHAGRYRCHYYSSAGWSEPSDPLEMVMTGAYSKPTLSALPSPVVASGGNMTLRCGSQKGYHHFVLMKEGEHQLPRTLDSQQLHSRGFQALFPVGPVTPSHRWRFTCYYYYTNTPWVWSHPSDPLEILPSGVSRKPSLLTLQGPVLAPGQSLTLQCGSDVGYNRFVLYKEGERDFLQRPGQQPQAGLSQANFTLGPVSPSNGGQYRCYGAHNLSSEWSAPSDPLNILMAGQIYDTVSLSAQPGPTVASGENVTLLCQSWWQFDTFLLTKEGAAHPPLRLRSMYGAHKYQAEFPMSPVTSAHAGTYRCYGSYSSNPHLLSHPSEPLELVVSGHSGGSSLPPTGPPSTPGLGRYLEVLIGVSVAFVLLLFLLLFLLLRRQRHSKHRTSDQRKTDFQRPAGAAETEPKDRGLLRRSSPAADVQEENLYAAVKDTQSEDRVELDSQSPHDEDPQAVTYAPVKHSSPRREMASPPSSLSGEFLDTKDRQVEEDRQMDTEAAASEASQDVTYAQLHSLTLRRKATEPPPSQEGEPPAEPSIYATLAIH
T7 sequence (O75019 17-489): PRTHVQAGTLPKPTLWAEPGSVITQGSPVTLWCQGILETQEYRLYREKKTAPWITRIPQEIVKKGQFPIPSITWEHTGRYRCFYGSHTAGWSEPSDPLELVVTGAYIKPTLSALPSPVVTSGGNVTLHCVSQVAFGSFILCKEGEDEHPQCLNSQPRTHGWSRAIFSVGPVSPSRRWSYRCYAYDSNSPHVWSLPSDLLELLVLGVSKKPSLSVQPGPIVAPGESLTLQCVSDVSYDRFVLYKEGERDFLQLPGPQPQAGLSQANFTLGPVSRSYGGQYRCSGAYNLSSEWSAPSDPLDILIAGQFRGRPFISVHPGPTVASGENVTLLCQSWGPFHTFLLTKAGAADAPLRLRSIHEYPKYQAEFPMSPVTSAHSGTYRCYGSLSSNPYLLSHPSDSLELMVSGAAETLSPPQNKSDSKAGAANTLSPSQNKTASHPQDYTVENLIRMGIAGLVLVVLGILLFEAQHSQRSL
T9 sequence (P59901 24-499): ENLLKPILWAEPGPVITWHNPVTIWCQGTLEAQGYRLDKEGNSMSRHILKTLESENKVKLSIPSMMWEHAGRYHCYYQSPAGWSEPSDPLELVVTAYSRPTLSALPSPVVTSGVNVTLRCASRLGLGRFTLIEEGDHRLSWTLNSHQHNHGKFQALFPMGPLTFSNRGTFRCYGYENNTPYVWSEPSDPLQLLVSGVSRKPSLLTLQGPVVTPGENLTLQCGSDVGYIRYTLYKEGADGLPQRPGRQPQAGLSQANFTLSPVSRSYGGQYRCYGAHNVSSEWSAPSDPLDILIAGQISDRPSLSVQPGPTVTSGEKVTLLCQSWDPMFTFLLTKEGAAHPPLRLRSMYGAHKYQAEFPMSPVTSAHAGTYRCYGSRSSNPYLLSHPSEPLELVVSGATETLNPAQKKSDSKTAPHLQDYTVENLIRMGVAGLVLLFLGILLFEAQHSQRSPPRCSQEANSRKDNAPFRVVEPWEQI

| Binder | FcγR stimulation (TNF-α, pg/mL) [1] | Fold change (Compared to isotype) [1] | ADCP (%) at 133.3 nM, macrophages and MV-4-11 cells [2] | EC50 (nM), ADCC on THP-1 cells [3] | Max cell cytotoxicity (%), ADCC on THP-1 cells [3] | EC50 [4] | Max MFI [4] | MFI [5] | MFI [6] | MFI [7] | MFI [8] | MFI [9] | MFI [10] | MFI [11] | MFI [12] | MFI [13] | MFI [14] | binding result [15] |
| --- | --- | --- | --- | --- | --- | --- | --- | --- | --- | --- | --- | --- | --- | --- | --- | --- | --- | --- |
| B1 | 215 pg/mL | 6.81 fold | 18.2% | 4.14 nM | 2.39% | 2.91 nM | 48000 MFI | – | – | – | – | – | – | – | – | – | – | – |
| B2 | – | – | – | – | – | – | – | 172 MFI | 22.6 MFI | 17.9 MFI | 20.2 MFI | 20 MFI | 727 MFI | 22.2 MFI | 30.4 MFI | 21.2 MFI | – | – |
| B3 | – | – | – | – | – | – | – | 19.9 MFI | 22.5 MFI | 16.3 MFI | 20.1 MFI | 21 MFI | 759 MFI | 23.1 MFI | 33.2 MFI | 19.9 MFI | 23.1 MFI | – |
| B4 | – | – | – | – | – | – | – | 19.1 MFI | 20.2 MFI | 18.7 MFI | 19.5 MFI | 17.7 MFI | 213 MFI | 24 MFI | 25.4 MFI | – | 23.7 MFI | – |
| B5 | – | – | – | – | – | – | – | – | 21.1 MFI | 19.5 MFI | 19.1 MFI | 17.3 MFI | 512 MFI | 22.1 MFI | 27.7 MFI | 19.7 MFI | 24.9 MFI | – |
| B6 | – | – | – | – | – | – | – | 24.7 MFI | 25.2 MFI | 22.6 MFI | 20 MFI | 20 MFI | 915 MFI | 21.9 MFI | 31.5 MFI | 23.7 MFI | 23 MFI | – |
| B7 | – | – | – | – | – | – | – | 19.6 MFI | 20.8 MFI | 19.6 MFI | 19.1 MFI | 17.9 MFI | 441 MFI | 21.3 MFI | 28.8 MFI | 19.4 MFI | 23.6 MFI | – |
| B8 | – | – | – | – | – | – | – | 17.2 MFI | 20.8 MFI | 18.8 MFI | 17.2 MFI | 17.8 MFI | 588 MFI | 21.6 MFI | 28.3 MFI | 19.6 MFI | 19.7 MFI | – |
| B9 | – | – | – | – | – | – | – | 25 MFI | 21 MFI | 21.8 MFI | 18.3 MFI | 19.9 MFI | 210 MFI | 21.6 MFI | 29.5 MFI | 20.7 MFI | 22.7 MFI | – |
| B10 | – | – | – | – | – | – | – | 22.6 MFI | 25.4 MFI | 21.6 MFI | 21.7 MFI | 19.7 MFI | 1710 MFI | 22.6 MFI | 28.8 MFI | 23 MFI | 26.7 MFI | – |
| B11 | 391 pg/mL | 12.4 fold | 4.59% | – | 7.1% | 2.05 nM | 48500 MFI | – | – | – | – | – | – | – | – | – | – | – |
| B12 | – | – | – | – | – | – | – | 24.5 MFI | 19.4 MFI | 16.8 MFI | 20 MFI | 19.6 MFI | 1060 MFI | 22.2 MFI | 29.5 MFI | 19.5 MFI | – | – |
| B13 | 1310 pg/mL | 41.4 fold | 18% | – | – | 4.05 nM | 53700 MFI | – | – | – | – | – | – | – | – | – | – | no binding (tested: up to 66.67 nM) |
| B14 | – | – | – | – | – | – | – | 359 MFI | 27.3 MFI | 18.9 MFI | 24.1 MFI | 22.6 MFI | 2760 MFI | 25.1 MFI | 45.8 MFI | 24.3 MFI | 26.7 MFI | – |
